The values that follow come from the nanobody polyreactivity screen of Harvey et al. (2022).

The nature of this series: yeast display, Sf9 membrane polyspecificity reagent, FACS + sequencing; frameworks hold sequencing errors. The essentials:
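A synthetic nanobody library was expressed on Saccharomyces cerevisiae BJ5465 by galactose induction for 36–48 hours. The library was stained for 1 hour at 4 °C with 10% biotinylated, detergent-solubilized Sf9 membrane reagent and enriched with streptavidin microbeads before FACS. Low and high (top ~1%) gates were set on anti-HA fluorescence for expression and streptavidin fluorescence for reagent binding, and each polyreactivity label reflects the gate of origin.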
With “QVQLVESGGGLVQAGGSLRLSCAASGRTFIRNAMGWYRQAPGKERELVAAISRSGGRTYYADSVKGRFTISRDNAKNTVYLQMNSLKPEDTAVYYCAAGSYQRYAFDYWGQGTQVTVSS”, the “polyreactivity (PSR sort gate)” value was “high polyreactivity”.
For “QVQLVESGGGLVQAGGSLRLSCAASGRTFIRNAMGWYRQAPGKERELVASISRRGGSTYYADSVKGRYTISRDNAKNTVYLQMNSLKPEDTAVYYCAKAYAFVTSGLGYDYWGQGTQVTVSS”, the “polyreactivity (PSR sort gate)” value is “high polyreactivity”.
For “QVQLVESGGGLVQAGGSLRLSCAASGRTFIRYAMGWYRQAPRKEREMVAAISYSGGTTYYADSVKGRFTISRDNAKNTVYLQMNSLKPEDTAVYYCARAGGYPLSRYGYWGQGTQVTVSS” the value was “high polyreactivity”.
“QVQLVESGGGLVQAGGSLRLSCAASGRTFIRYCMGWYRQAPGKERELVAAITSRGGRTYYADSVKGRFTISRDNAKNTVYLQMNSLIREDTAVYYCAADTTWYSRYRHLWYRYYYWGQGTQVTVSS”: the “polyreactivity (PSR sort gate)” value was “high polyreactivity”.
For “QVQLVESGGGLVQAGGSLRLSCAASGRTFISIVMAWYRQAPGKERELVAAIRSSGRTYYADSVKGRFTISRDNAKITVYLQINSLKPVDTAVYYCAAPGGLLGSGYWGQGTLVTVSS”, the “polyreactivity (PSR sort gate)” value is “low polyreactivity”.
For “QVQLVESGGGLVQAGGSLRLSCAASGRTFIVNTMGWYRQAPGKERELVAAITARGGRTYYADSVKGRFTISRDNAKNTVYLQMNSLIPEDTAVYYCNASTPPREAERYYWGQGTQVTVSS” the value was “low polyreactivity”; for “QVQLVESGGGLVQAGGSLRLSCAASGRTFIVYAMGWYRQAPGKERELVAGITRGSTNYADSVKGRFTISRDNAKNTVYLQMNSLKPEDTAVYYCAARSSRRGPISEGDYWGQGTQVTVSS”, “high polyreactivity”.
For “QVQLVESGGGLVQAGGSLRLSCAASGRTFIWYVMGWYRQAPGKERELVATISYGGITYYADSVKRRFTISRDNAKNTVYLQMNSLKPEDTAVYYCAAYKYTHKPHGDYWGQGTQVTVSS” the value was “high polyreactivity”; for “QVQLVESGGGLVQAGGSLRLSCAASGRTFIYYAMGWNRQAPGKERELVAGITYSVGSTYYADSVKGRFTISRDNEKNTVYLQMNSLKPEDTAVYYCAADATFESDWGQGTQVTVSS”, “low polyreactivity”; for “QVQLVESGGGLVQAGGSLRLSCAASGRTFIYYAMGWYRQAPGKERELVAAITYSGTSTYYADAVKGRFTISRDNAKNTVYLQMNSLKPEDTAVYYCAKDGQRDAKYNWGQGTQVTVSS”, “low polyreactivity”.
For “QVQLVESGGGLVQAGGSLRLSCAASGRTFIYYAMGWYRQAPGKERELVASITTGGRTYYADSVKGRFTISRDNAKNTVYLQMNSLKPEDTAGYYCAAVRRIRRPRYGYWGQGTQVTVSS” the value was “high polyreactivity”; for “QVQLVESGGGLVQAGGSLRLSCAASGRTFKFNAMGWYRQAPGKERELVAGITWTGSTTSYADSVKGRFTISRDNAKNTVYLQMNSLKPEDTAVYYCDADKIRFWYHGFYYRGQGTQVTVSS”, “low polyreactivity”.
As for “QVQLVESGGGLVQAGGSLRLSCAASGRTFKFNTMGWYRQAPGKEREVVAAISWTGAITHYADSVKGRFTISRDNAKNTVYLQMNSLKPEDTAVYYCNSDPYRRIYNYWGQGTQVTVSS”, the “polyreactivity (PSR sort gate)” value is listed as “low polyreactivity”.
Take “QVQLVESGGGLVQAGGSLRLSCAASGRTFKFYAMGWYRQAPGKERELVAAISSSGGRTYYADSVKGRFTISRDNAKNTVYLQMNSLTPEDTAVYYCAAVPGSKFVQKDDYWGQGTQVTVSS”: the “polyreactivity (PSR sort gate)” value is “low polyreactivity”.
As to “QVQLVESGGGLVQAGGSLRLSCAASGRTFKGNAMGWYRPAPGKERELVAVITGSGGSTYYADSVKGRFTISRDNAKNTVYLQMHSLKPEDTAVYYCAKQVRSYVRWEYDYWGQGTQGTVSS”, the “polyreactivity (PSR sort gate)” value is recorded as “low polyreactivity”.
Take “QVQLVESGGGLVQAGGSLRLSCAASGRTFKGNAMGWYRQAPGKERELVAAISKSGGRTYYADSVKGRFTISRDNAKNTVYLQMNSLKPEDTAVYYCAAGYYPSSSGDDYWGQGTQVTVSS”: the “polyreactivity (PSR sort gate)” value is listed as “high polyreactivity”.
With “QVQLVESGGGLVQAGGSLRLSCAASGRTFKGNAMGWYRQAPGKERKLVAVITGSGGSTYYADSVKGRFTISRDNAKNTVYLQMNSLKPEDTAVYYCAAESEPIRIRERDYWGQGTHVTVSS”, the “polyreactivity (PSR sort gate)” value is on record as “low polyreactivity”.
Take “QVQLVESGGGLVQAGGSLRLSCAASGRTFKIYAMGWYRQAPGKERELVAAIRRSGGNTYYADSVKGRFTISRDNAKNTVYLQMNSLKPEDTAVYYCATRGYPGGYQRSQSMYYWGQGTQVTVSS”: the “polyreactivity (PSR sort gate)” value was “high polyreactivity”.
Consider “QVQLVESGGGLVQAGGSLRLSCAASGRTFKKYAMGWFRQAPGKERELVAAITGSGGSTYYADSVKGRFTISRDNAKNTVYLQMNSLKPEDTADYYCAAYAYGVWHSQDGGNYWGQGTQVTVSS”, for which the “polyreactivity (PSR sort gate)” value is “low polyreactivity”.
With “QVQLVESGGGLVQAGGSLRLSCAASGRTFKKYAMGWYRQAPGKERELVAAITSRGGSTYYADSVKGRFTISRDNAKNTVYLQMNSLKPEDTAVYYCNAVRGWLYVFSYPYWDDEYWGQGTQVTVSS”, the “polyreactivity (PSR sort gate)” value is reported as “high polyreactivity”.
For “QVQLVESGGGLVQAGGSLRLSCAASGRTFKKYAMGWYRQAPGKERELVSAITGSVGSTYYADSVKGRFTISRDNAKNTVYLQMNSLIPEDTAVYYCAAYAYGVWHSQDGGNYWGQGTQVTVSS”, the “polyreactivity (PSR sort gate)” value is recorded as “low polyreactivity”.
On to “QVQLVESGGGLVQAGGSLRLSCAASGRTFKLNAMGWYRQAPGKERELVAGITRTGDSTYYADSVKGRFTISRDNAKNTVYLQMNSLKPEDTAVYYCAKDGPWKFIYDYWGQGTQVTVSS”, for which the “polyreactivity (PSR sort gate)” value is “low polyreactivity”.
For “QVQLVESGGGLVQAGGSLRLSCAASGRTFKLYAMGWYIQAPGKERELVAAISIRGTSTYYADSVKGRFTISRDNAKNTVYLQMNSLKPEDTAVYYCAAEDRYAYYMVRWQCYYYWGQGTQVTVSS”, the “polyreactivity (PSR sort gate)” value is “low polyreactivity”.
Take “QVQLVESGGGLVQAGGSLRLSCAASGRTFKLYAMGWYRQAPGKERELVAAISRSSGSTYYADSVKGRFTISRDNAKNTDYLQMNSLKPEDTAVYYCAARKNRAYGYWGQGTQVTVSS”: the “polyreactivity (PSR sort gate)” value is on record as “high polyreactivity”.
With “QVQLVESGGGLVQAGGSLRLSCAASGRTFKPNTMGWYRQAPGKERELVAAITSSGGSTYYADSVKGRFTISRDNAKNTVYLQMNSLKPEDTAVYYCAARGGAPYRIFKDDYWGQGTQVTVSS”, the “polyreactivity (PSR sort gate)” value is given as “high polyreactivity”.
For the sequence “QVQLVESGGGLVQAGGSLRLSCAASGRTFKPYALGWYRQAPGKERELDAAISTGGSTNYADSEKGRFTISRDNAKNSVYLQMNSLKPEDTAVYYCAADYFLYSYFLGLMDYWGQGTLVTVSS”, the “polyreactivity (PSR sort gate)” value was “low polyreactivity”.
For “QVQLVESGGGLVQAGGSLRLSCAASGRTFKPYAMGWYRQAPGKERELVAAIRSAGTTNYADSVKGRFTISRDNAKNTVYLQMNSLKPEDTAVYYCNAGTYLRRYYGFDYWGQGTQVTVSS” the value was “high polyreactivity”; for “QVQLVESGGGLVQAGGSLRLSCAASGRTFKRNAMGWYRQAPGKEREFVAVITGSGGSTYYADSVKGRFTISRDNAKNTVYLQMNSLKPEDTAVYYCAAQATRYGQYTYDYWGQGTQVTVSS”, “high polyreactivity”.
Regarding “QVQLVESGGGLVQAGGSLRLSCAASGRTFKRYAMGWYRQAPGKERELVAAIRQRGGSTYYADSVMGRFTISRDNAKNTVYLQMNSLKPEDTAVYYCAAVIPRPYSVGFDYWGQGTQVTVSS”, the “polyreactivity (PSR sort gate)” value is on record as “high polyreactivity”.
For “QVQLVESGGGLVQAGGSLRLSCAASGRTFKSYAMGWYRQAPWKESELVAAISYSGGSTYYADSVKGRVTISRDNAKNTVYLQMNSLKPEDTAVYYCNVVSKVIRGLSGDGYWGVGTQVTVSS” the value was “high polyreactivity”; for “QVQLVESGGGLVQAGGSLRLSCAASGRTFKSYSMGWYRPAPGKERELVAAISWSGGSTYYADSVKGRFTISRDNAKNTVYLQMNSLKPEDTAVYYCAKRGYASGSKWDYGYWGQGTQVTVSS”, “high polyreactivity”.
“QVQLVESGGGLVQAGGSLRLSCAASGRTFKTYAMGWYRQAPGKERELVAAISASGGRTYYADSVKGRFTISRDNAKNTVYLQMNSLKPEDTAVYYCAALGYILNGGDYWGQGTQVTVSS”: the “polyreactivity (PSR sort gate)” value is recorded as “high polyreactivity”.
Consider “QVQLVESGGGLVQAGGSLRLSCAASGRTFKTYAMGWYRQAPGKERELVAAITRRGGSTYYADSVKGRFTISSDNAKNTVYLQMNRLKPEDTAVYYCAAGFYFLSLFSGRMDYWGQGTQVTVSS”, for which the “polyreactivity (PSR sort gate)” value is recorded as “high polyreactivity”.
Take “QVQLVESGGGLVQAGGSLRLSCAASGRTFKYNAMGWYRQAPGKERELVAAISSTGSTNYADSVKGRFTISRDNAKNTVYLQMNSLKPEDTAVYYCAASYFFVQWGWYYYWGQGTQVTVSS”: the “polyreactivity (PSR sort gate)” value was “low polyreactivity”.
As for “QVQLVESGGGLVQAGGSLRLSCAASGRTFKYNAMGWYRQAPGKERELVATISGSGGRTYYADSVKGRFTISRDNAKNTVYLQMNSLTPEDTAVYYCAAVPSYHSTSPFYYWGLGTQVTVSS”, the “polyreactivity (PSR sort gate)” value is on record as “high polyreactivity”.
“QVQLVESGGGLVQAGGSLRLSCAASGRTFKYYAMGWYRQAPGKERELVAAISGSGGSTYYADSVKGRFTISRDNAKNTVYLQMNSLKPEDTAVYYCATGGGKTRSYNYWGQGTQVTVSS”: the “polyreactivity (PSR sort gate)” value is “high polyreactivity”.
“QVQLVESGGGLVQAGGSLRLSCAASGRTFKYYAMGWYRQAPGKERELVAAISHSGGSTYYADSVKGRFTISRDNAKNTVYLQMNSLKPEDTAVYYCAADHGDGNYPYYYWGQGTQVTVSS”: the “polyreactivity (PSR sort gate)” value is “high polyreactivity”.
For “QVQLVESGGGLVQAGGSLRLSCAASGRTFKYYAMGWYRQAPGKERELVAAISYNGGSTFYADSVKGRFTISRDNAKNTVYLQMNSLKPVDTAVYYCAAGPRGTGKYYWGQGTQVTVSS”, the “polyreactivity (PSR sort gate)” value is on record as “high polyreactivity”.
For “QVQLVESGGGLVQAGGSLRLSCAASGRTFKYYAMGWYRQAPGKERELVAAISYSGGSTYYADSVKGRFTISRDNAKNTVYLQMNSLKPEDTAVYYCAARFTRYYSGGDQKYDYWGQVTQVTVSS” the value was “high polyreactivity”; for “QVQLVESGGGLVQAGGSLRLSCAASGRTFKYYAMGWYRQAPGKERELVAAITASDGSTYYADSVKGRFTISRDNAKNTVYLQMNSLKPEDTAVYYCAAVPYRYTYDYWGQGTQVTVSS”, “high polyreactivity”.
Turning to “QVQLVESGGGLVQAGGSLRLSCAASGRTFKYYAMGWYRQAPGKERELVATINYSGGGTNYADSVKGRYTISRDNATNTVSLQMNSLKPDDTAVYYCAARWLWRIPYDYWGEGTQVTVSS”, the “polyreactivity (PSR sort gate)” value is given as “high polyreactivity”.
